For assay [1], the target named is Gal4-DBD–Vnd, construct A2 (amino acids 3–613) (Drosophila) (UniProt P22808). Nature of the assay: two-hybrid.
The target in assay [2] is Gal4-DBD–Vnd, construct A1 (amino acids 3–717) (Drosophila) (UniProt P22808). Put plainly: two-hybrid.

On to “VP16–Dichaete (pACT-Dichaete) (natural protein)”, for which the fold alleviation of repression (two-hybrid reporter) in assay [1] is 3 to 3.5 fold. Also, the fold reduction of repression (two-hybrid reporter) in assay [2] is 6 fold.

Values taken from paper PMC546129.
